The values that follow come from patent US20170052184A1.

Read-outs that look alike come from different tables or passages of the source. Bounds are passed on as bounds.

Assay [1] concerns the target HCV Core1-169 (hepatitis C virus (HCV-1)) (UniProt P26664). Kind of assay: SPR sandwich, capture mAb C11-7.
Assay [2] has as its target HCV Core1-169 (HCV-1) (UniProt P26664). Kind of assay: EIA, core1-169 coated on plate.
The target is the same in assay [3]. Kind of assay: EIA, core1-169 captured by mAb 14-153-229.
Assay [4] concerns the target bovine serum albumin (bovine) (UniProt P02769). As to the kind of experiment: EIA, BSA control.
Assay [5] concerns the target HCV Core1-169 (hepatitis C virus (HCV-1)) (UniProt P26664). Kind of assay: SPR sandwich, capture mAb C11-14.
Assay [6] deals with bovine serum albumin (BSA) (bovine) (UniProt P02769). Kind of assay: EIA, BSA background.
The target is the same in assay [7]. Kind of assay: EIA, BSA background. This is another data set of the same source.
Assay [8] concerns the target HCV Core1-169 (hepatitis C virus (HCV-1)) (UniProt P26664). Kind of assay: SPR sandwich, capture mAb C11-3.
The target is the same in assay [9]. As to the kind of experiment: SPR sandwich, capture mAb C11-9.
Assay [10] addresses T1, HCV bt-141-161 (Peptide 2, HCVc 141-161) (Hepatitis C virus (numbering per HCV-1)).
T1 sequence (peptide, biotin (carboxy-terminal per [p-0227]; N-terminal per [p-0050])): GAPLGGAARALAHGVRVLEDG
As to the kind of experiment: EIA, captured mAb + biotin peptide.

Assay [11] has as its target T2, HCV bt-134-154 (Peptide 1, HCVc 134-154) (Hepatitis C virus (numbering per HCV-1)).
T2 sequence (peptide, biotin (carboxy-terminal per [p-0227]; N-terminal per [p-0050])): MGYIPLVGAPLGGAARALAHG
As to the kind of experiment: EIA, captured mAb + biotin peptide.

For assay [12], the target named is T3, HCV bt-151-171 (Peptide 3, HCVc 151-171) (Hepatitis C virus (numbering per HCV-1)).
T3 sequence (peptide, biotin (carboxy-terminal per [p-0227]; N-terminal per [p-0050])): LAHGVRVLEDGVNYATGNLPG
Kind of assay: EIA, captured mAb + biotin peptide.

Sequence of bovine serum albumin (BSA) (bovine) (P02769 25-607 limits assumed): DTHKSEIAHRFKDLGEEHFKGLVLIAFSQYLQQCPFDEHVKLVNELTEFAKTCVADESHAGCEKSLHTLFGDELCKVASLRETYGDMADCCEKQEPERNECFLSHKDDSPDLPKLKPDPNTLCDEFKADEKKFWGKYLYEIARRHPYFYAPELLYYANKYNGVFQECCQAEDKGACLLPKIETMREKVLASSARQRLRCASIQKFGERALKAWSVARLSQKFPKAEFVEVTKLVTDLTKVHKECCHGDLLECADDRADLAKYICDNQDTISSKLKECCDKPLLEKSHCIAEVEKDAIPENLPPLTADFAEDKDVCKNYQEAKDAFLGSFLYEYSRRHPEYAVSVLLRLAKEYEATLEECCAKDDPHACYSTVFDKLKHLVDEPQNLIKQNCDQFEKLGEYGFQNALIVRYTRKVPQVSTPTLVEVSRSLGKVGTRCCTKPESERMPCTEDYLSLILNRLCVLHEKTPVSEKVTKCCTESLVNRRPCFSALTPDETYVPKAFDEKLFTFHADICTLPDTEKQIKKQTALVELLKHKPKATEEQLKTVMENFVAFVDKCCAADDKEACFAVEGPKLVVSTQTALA
Sequence of bovine serum albumin (bovine) (P02769 25-607 limits assumed): as above

B1: HCV 208A-967 (antibody, V domains shown)
VH: QVQLEESGPGLVAPSQSLSITCTVSGFSLTSYGVHWVRQPPGKGLEWLGVIWAVGSINYNSALMSRLSISKDNSKSQVFLKMNSLRTDDTAMYYCARDRTTATPFFDYWGQGTTLTVSS
VL: DIVLTQSPASLAGSLGKRAPISCKASESVNFFGTNLIHWYQQKPGQPPKLLIYHASNLKTGVPARFRGRGSKTNFPLPIDPVEENDVAIYYCLQNRKIPLTFGVGTKLELKR
Consider B1, for which the expected percent binding in [1], in [5], in assay [8] and in [9] was below 1% throughout. The OD (A492) was found to be 1.08 OD with HCV Core1-169 (HCV-1) [2], 0.18 OD with HCV Core1-169 (HCV-1) [3], 1.3 OD in assay [6] and 0.15 OD in [7]. The Reactivity (OD 492 nm) in assay [4] was 0.07 OD units; in [10], 0.73 OD units; in [11], 0.52 OD units; in [12] it was 0.18 OD units.
